The test addresses HER2 expressed on JIMT-1 cells (UniProt P04626). Description: flow cytometry on JIMT-1 cells, antibody at 100 nM, FITC secondary. In general terms: Flow cytometry measures light scatter and fluorescence of single cells or particles in a stream.

IgG control (antibody): the MFI amounted to 12500.

The values are drawn from patent publication EP4722253A1.
